We go through 2 molecules from paper PMC7772355, “Transmembrane Peptides as a New Strategy to Inhibit Neuraminidase-1 Activation” (Frontiers in Cell and Developmental Biology, 2020).

B1: hNEU1-TMS2 (domain or fragment)
chain: not shown
modifications: 15N-labeled
notes: human NEU1, residues R305-R341, holding the transmembrane segment TM2; Embedded in DPC micelles for NMR; also called hNEU1/TMS2 fragment; hNEU1 TM2 segment; source: bacterial expression and purification as described in Maurice et al. (2016)
B2: mutIntPepR (peptide)
peptide: GSMWHHHHHHGGELVDPVVVAIAVVTSSIIAFFSN
notes: holds the His6; not NEU1; human NEU1, TM2 segment with four point mutations; The gene construct had GB1 as leading fusion protein followed by a thrombin cleavage site; the printed peptide begins with GS, so GB1 was probably cleaved off (surmised); Unlabeled; embedded in DPC micelles; also called recombinant version of the four-point mutated peptide IntPep; source: continuous exchange cell-free …

Data set [1] deals with the molecule itself. As to the kind of experiment: NMR titration; homodimerisation: 0.4 mM 15N-labeled hNEU1-TMS2 in DPC micelles, D/P 50 titrated with DPC to 110 (further samples to D/P 200); pH 6.5, 20 mM sodium phosphate, 313 K, 800 MHz, 1H/15N-TROSY.
The data set “hNEU1-TMS2” concerns the target B1. Description: NMR titration; heterodimerisation: 0.3 mM 15N-labeled hNEU1-TMS2 in DPC micelles (D/P 120) titrated with unlabeled recombinant peptide in micelles up to N/I of 1 (D/P near 100); pH 6.5, 20 mM sodium phosphate, 313 K, 1H/15N-TROSY. The conditions noted are these: both partners purified.

In general, stoichiometry N refers to the number of molecules, sites or subunits per partner or assembly.

For B1, the “stoichiometry N” value in data set [1] was 2.
In the case of B2, the binding result with hNEU1-TMS2 is “binds”.
